# Reference: patent publication US20020183271A1, “Methods of treatment involving human MDA-7” (priority 2000, published 2002)
# B1: IL-10: Human recombinant IL-10 purchased from R&D Systems (protein, UniProt P22301 19-178, looked up)
# Interleukin-10: SPGQGTQSENSCTHFPGNLPNMLRDLRDAFSRVKTFFQMKDQLDNLLLKESLLEDFKGYLGCQALSEMIQFYLEEVMPQAENQDPDIKAHVNSLGENLKTLRLRLRRCHRFLPCENKSKAVEQVKNAFNKLQEKGIYKAMSEFDIFINYIEAYMTMKIRN
# B2: soluble MDA-7: secreted form of MDA-7 in filtered supernatants of cells transduced with Ad-mda7 (protein, UniProt Q13007 52-206, looked up)
# Interleukin-24: QEFHFGPCQVKGVVPQKLWEAFWAVKDTMQAQDNITSARLLQQEVLQNVSDAESCYLVHTLLEFYLKTVFKNYHNRTVEVRTLKSFSTLANNFVLIVSQLQPSQENEMFSIRDSAHRRFLLFRRAFKQLDVEAALTKALGEVDILLTWMQKFYKL
# B3: recombinant MDA-7 expressed in E. coli and S. cerevisiae: recombinant MDA-7 expressed in E. coli and S. cerevisiae, used in preliminary experiments (protein, UniProt Q13007 52-206, looked up)
# Interleukin-24: B2 Interleukin-24
# B4: MDA-7: human MDA-7 protein secreted by and purified from stably transfected 293 cells (293-mda7) (protein)
# chain: B2 Interleukin-24
# Legend:
# [1] = test system: T47D; assay: Ad-mda7 growth inhibition, 3H-thymidine incorporation assay; format: cell-based, human; conditions: T47D cells; four days after treatment
# Method: (§1) Cells were either plated at 500-2000 cells/well in 96-well format for Tritiated thymidine incoporation-Cell Proliferation Assay or plated at 10^5-10^6 cells/well in a 6 well plate for protein expression or Apoptosis assays or plated at 10^4 cells/well for Alamar-blue assay. […]
# (§2) Growth inhibition of cells after treatment is measured by analysis of DNA-synthesis. Briefly, for the ^3H-thymidine incorporation assay cells will be plated at 200-5000 cell per well in a 96-well format and grown in DMEM/10% FBS in a 5% CO2 incubator at 37° C. overnight. The next day the media is aspirated and replace with […] DMEM/10% FBS containing the appropriate adenovirus at the appropriate MOI. Cells will be incubated with infecting media for 1 to 4 hrs and then diluted to […] total volume and grown overnight. Media is replaced with DMEM/10% FBS/mCi ^3H-thymidine and grown for 16 to 18 hrs. Stock solution of 100 uCi/mL of H3-thymidine (Amersham) is prepared by dilution into high glucose DMEM (GIBCO). ^3H-Thymidine was added to each well at a final concentration of 1 μCi/mL. The reaction is stopped 15 hours later by removal of the supernatant from recipient cells. […] The filter were dried and analyzed in Matrix 9600 (Packard) and cell proliferation using Viral Particles/cell against Tritiated Thymidine uptake counts were plotted.
# [2] = test system: MCF-7; assay: as above; format: cell-based, human; conditions: MCF-7 cells; four days after treatment; tamoxifen 1 ng/ml
# Method: as §1, §2
# [3] = test system: secretion of soluble MDA-7 protein; assay: Inhibition of glycosylation and secretion of MDA-7 protein; format: cell-based
# Text: Two antibiotics, Tunicamycin and Brefeldin A, have been used to provide a more detailed characterization of the secretion of soluble MDA-7. N-linked glycosylation plays an important role in a protein's ultimate processing, whether it is sorted to a lysosomal pathway, or translocated to the cell surface or secreted. Using Tunicamycin, the N-linked glycosylation process in the […] can be inhibited, thus inhibiting protein secretion or other sugar-dependent sorting processes.
# [4] = test system: Human umbilical vein endothelial cells (HUVEC); assay: Tube formation assay (endothelial differentiation), vectors and Suramin; format: cell-based; conditions: vectors 10,000 vp/cell; Suramin 50 μM; Matrigel
# Method: Human umbilical vein endothelial cells (HUVECs; Clonetics) were seeded on 1% gelatin-coated plates and incubated at 37° C. for 24 hours. […] Cells exposed to medium alone served as negative controls while cells exposed to Suramin (50 μM) served as positive controls. After a 48-hour incubation period (37° C. in serum-containing medium), infected cells were harvested, counted, and added to Matrigel-coated 24-well plates in triplicate (1.2×10^5 cells per well). Twenty-four hours later, cells were fixed with 10% buffered formalin and examined for differentiation (tube formation) by using an Olympus IX-70 inverted bright-field microscope at 4× and 10× magnification. cl Example 1
# Tube Formation Assay. Human umbilical vein endothelial cells (HUVECs; Clonetics) were seeded on 1% gelatin-coated plates and incubated at 37° C. for 24 hours. After incubation, cells were infected for 1 hour with Ad-luc or Ad-mda 7 at 10,000 vp/cell in serum-free medium. Cells exposed to medium alone served as negative controls while cells exposed to Suramin (50 μM) served as positive controls. After a 48-hour incubation period (37° C. in serum-containing medium), infected cells were harvested, counted, and added to Matrigel-coated 24-well plates in triplicate (1.2×10^5 cells per well). […]
# [5] = test system: PBMC; assay: PBMC proliferation (thymidine uptake); format: cell-based, human; conditions: 4 days of coculture; three donors
# Text: Some cytokines can also function as growth factors. Therefore the proliferative simulation function of MDA-7 was addressed using PBMC. IL-10 was included as a negative cytokine control.
# [6] = test system: PBMC; assay: Secondary cytokine secretion from PBMC (ELISA); format: cell-based, human
# Method: FIG. 24. Effect of MDA-7 and IL-10 on inflammatory cytokine secretion from PBMC. Two ml/well (2×10^6 cells/ml) PBMC were plated in a 24 well plate and cultured untreated or with indicated amounts of MDA-7 (B 2 ng/ml; D,F 20 ng/ml), 5 μg/ml LPS, 5 μg/ml PHA, 500 U/ml IL-10 (˜17 ng/ml; R & D Systems, Minneapolis, Minn.) or combination of IL-10 and MDA-7. Supernatants were harvested at 48 hours and analyzed for cytokine content by ELISA (Endogen, Corp) according to manufacturer's instructions. Data from one representative donor are reported. * Indicates values above standard curve.
# FIG. 25. […] Human PBMC were treated with 5 μg/ml LPS, 500 U/ml IL-10, 5 ng/ml MDA-7 or combinations for 48 hours. An equal volume of an S column fraction not containing MDA-7 as determined by Western (an MDA-7 Neg Fraction) was used as a control for buffer/salt content. Supernatants were harvested at 48 hours and analyzed for cytokine content by ELISA (Endogen, Corp) according to manufacturer's instructions. Data from one representative donor are reported. * Indicates value greater than 500 pg/ml IL-1β. ** Actual values are 539 pg/ml IL-12 and 893 pg/ml GM-CSF. Data from one representative donor are reported.
# Activation of PBMC: PBMC were isolated from the peripheral blood of normal healthy donors by centrifugation over Histopaque (Sigma, St. Louis, Mo.). Cells were cultured at a concentration of 1×10^6 cells/ml in RPMI-1640 based media supplemented with L-glutamine, Hepes, penicillin, streptomycin, and 10% human AB serum (Pelfreez, Brown Deer, Wis.) for 72 hr in the presence of PHA-P at 5 μg/ml or LPS 10 μg/ml (both from Sigma, St. Louis, Mo.). Four hours prior to harvest Brefeldin A (BFA, Sigma-Aldrich) was added at a final concentration of 10 μg/ml. The supernatants as well as cells were then harvested.
# ELISA assays. The ELISA reaction to detect human MDA-7 was carried out in 96-well plates using standard techniques and an antibody pair selected for sentivity. Elisa assays for cytokines were perfomed in an identical manner, employing commercially available kits as designated in the figure legends.
# [7] = test system: H1299 cells; assay: Soluble MDA-7 supernatant killing, trypan blue exclusion; format: cell-based, human; conditions: supernatants, 48 hours
# Method: FIG. 11A. Soluble MDA-7 (sMDA7) kills tumor cells. […] All the supernatants used in this experiment were filtered through a 0.1 micron filter prior to challenge with H1299 cells. FIG. 11B. H1299 cells were challenged with soluble MDA-7 supernatant from four different stocks and percentage dead cells evaluated after 48 hours: 1) 293*NF: Non-filtered supernatant obtained from modified 293 cells (cells were grown in serum-free conditions); 2) 293*F: 0.1 micron filtered supernatant obtained from modified 293 cells; 3) 293F: 0.1 micron filtered supernatant obtained from regular 293 cells (FBS+); and 4) H1299F: 0.1 micron filtered supernatant obtained from H1299 cells. D0 is non-diluted material whereas D1:1; D1:5, D1:10 indicate the dilutions used.
# The secreted form of MDA-7 (sMDA-7) was produced using various cell lines and evaluated for anti-tumor activity. Soluble MDA-7 was analyzed for its anti-proliferative effects on H1299 cells. Briefly, H1299 cells were plated at cell density of 10^3 cells/chamber in Nunc chamber slides. 24 hours later, the cells were challenged with supernatants obtained from H1299 cells transduced with either Ad-mda-7 or Ad-luc (at 1000 vp/cell infection). Ad-mda7 and Ad-luc viruses were also used as additional controls. […]
# [8] = test system: HUVEC cells; assay: Tube formation with purified MDA-7 protein; format: cell-based, human
# Method: HUVEC cells were administered increasing amounts of MDA-7 protein purified from 293-mda7 cells. Doses that were evaluated ranged from 0.5-100 ng/ml. The ED50 of MDA-7 ranged from 5-50 ng/ml. Endothelial differentiation in the cells was inhibited by MDA-7 protein, but not control cells, based on tube formation.
# HUVEC cells were given varying doses of MDA-7 protein purified from 293-mda7 cells (lots 1-6) or from baculovirus exoressing mda-7. A positive control of Ad-mda7 and a negative control of Ad-luc were included in most assays.
# [9] = 500 U/ml IL-10, 5 ng/ml MDA-7, 48 hours
# [10] = 500 U/ml IL-10 added to PBMC stimulated by MDA-7
molecule,measurement,setting,value
CC/C(=C(\c1ccccc1)c1ccc(OCCN(C)C)cc1)c1ccccc1 [tamoxifen],DNA replication (tritiated thymidine assay),[1],minimal effect
same,DNA replication (tritiated thymidine assay),[2],little effect
C[C@H]1CCC/C=C/[C@@H]2C[C@H](O)C[C@H]2[C@H](O)/C=C/C(=O)O1 [Brefeldin A],secretion of soluble MDA-7 protein,[3],effectively inhibit the secretion of soluble MDA-7 protein
Tunicamycin,secretion of soluble MDA-7 protein,[3],effectively inhibit the secretion of soluble MDA-7 protein
Cc1ccc(C(=O)Nc2ccc(S(=O)(=O)O)c3cc(S(=O)(=O)O)cc(S(=O)(=O)O)c23)cc1NC(=O)c1cccc(NC(=O)Nc2cccc(C(=O)Nc3cc(C(=O)Nc4ccc(S(=O)(=O)O)c5cc(S(=O)(=O)O)cc(S(=O)(=O)O)c45)ccc3C)c2)c1 [Suramin],endothelial tube formation,[4],known inhibitor of tube formation
B1,proliferation (thymidine uptake),[5],did not induce increased thymidine uptake
same,effect of IL-10 on GM-CSF production,[6]; [9],partially inhibited
same,effect of IL-10 on IL-1β production,[6]; [9],partially inhibited
same,effect of IL-10 on IL-12 production,[6]; [9],completely inhibited
same,effect of IL-10 on IFNγ induction by MDA-7,[6]; [10],completely abrogated
same,effect of IL-10 on IL-6 induction by MDA-7,[6]; [10],partially blocked
same,effect of IL-10 on TNFα induction by MDA-7,[6]; [10],completely abrogated
B2,killing of H1299 cells,[7],concentration-dependent bystander killing effect
same,killing of H1299 cells,[7]; listed as soluble MDA-7 protein,showed H1299 killing
B3,proliferation (thymidine uptake),[5],did not show a proliferative response
same,"secondary cytokine production, preliminary experiments",[6]; very high doses (μg/ml quantities) required,"robust production of IL-6, TNFα, and IFNγ, very low levels of GM-CSF and IL-10, and no IL-2, IL-4, and IL-5"
B4,proliferation (thymidine uptake),[5],did not induce significant proliferation
same,lowest doses inhibiting tube formation,[8]; MDA-7 protein from 293-mda7 cells (lots 1-6) or baculovirus,0.5 to 10 ng/mL
same,"ED50 (inhibition of endothelial differentiation, tube formation)","[8]; MDA-7 protein purified from 293-mda7 cells, doses 0.5-100 ng/ml",5 to 50 ng/mL
same,IL-6 secretion,"[6]; 2 ng/ml of MDA-7, above the standard curve of the ELISA kit",greater than 800 pg/ml
same,"IL-1β, IL-12 and GM-CSF secretion","[6]; 5 ng/ml MDA-7, 48 hours","induces IL-1β, IL-12 and GM-CSF secretion"
same,MDA-7 concentration stimulating maximal IL-6 secretion,"[6]; 48 hours, ELISA",200 pg/mL
same,dose required to achieve optimal levels of TNFα and IFNγ secretion,"[6]; 48 hours, ELISA",2 ng/mL
same,induction of TNFα compared with LPS,[6]; LPS 5 μg/ml positive control,more potent inducer than the positive stimulation control LPS
